In paper PMC7247576:

Key:
Assay in all cases: EMSA
Details in all cases: tetrahydrofuran abasic residue (F); EMSA: 50 mM Tris-HCl pH 8.0, 100 mM NaCl, 1 mM DTT, 50 nM FAM-AP-DNA, 4 °C, 30 min; 5% native PAG. Fluorescence: 50 mM HEPES pH 8.0, 100 mM NaCl, 4 mM DTT …
[1] = system: APE1NΔ35 (Homo sapiens)
[2] = system: APE1NΔ61 (Homo sapiens)
[3] = system: APE1 (full-length) (Homo sapiens)

## AP-DNA (32-mer duplex with synthetic abasic site)
[1]
  K half: 200 nM
[2]
  K half: 210 nM
[3]
  K half: 120 nM
